Test results reported in article PMC7269643 (Science Advances, 2020).

Biological target: the molecule itself
Assay: AUC

B1: VapB22 antitoxin (Rv2830c) from Mycobacterium tuberculosis, expressed alone from pET28b (natural protein)
chain: MTATEVKAKILSLLDEVAQGEEIEITKHGRTVARLVAATGPHALKGRFSGVAMAAADDDELFTTGVSWNVS
stoichiometry N: 2
